We go through 125 sequences from the supplement of paper PMC9112550, “Optimization of the antimicrobial peptide Bac7 by deep mutational scanning” (BMC Biology, 2022).
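Also: peptides expressed intracellularly from a pBAD plasmid library in pooled LB shake-flask culture, induced with 0.3% L-arabinose, DNA abundance read by NGS, three biological replicates, DESeq2 with apeglm shrinkage.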

This data set deals with Escherichia coli TOP10. Nature of the data set: shrunken log2 fold change of peptide-encoding DNA abundance (4.5 h post-induction vs induction); higher = less antimicrobial activity (less host growth inhibition). As to conditions: time post-induction: 4.5 h; library: site-saturation at positions 5, 18, 19, 20.
Turning to RRIRGRPPRLPRPRPRPEYRPRP, the “shrunken log2 fold change” value worked out at 0.354.

With RRIRPRPPRLPRPRPRPHNMPRP, the “shrunken log2 fold change” value is -0.745.

Take RRIRIRPPRLPRPRPRPDHDPRP: the “shrunken log2 fold change” value is -0.0366.

Regarding RRIRMRPPRLPRPRPRPYRKPRP, the “shrunken log2 fold change” value is -0.432.

Regarding RRIRCRPPRLPRPRPRPPKIPRP, the “shrunken log2 fold change” value is 0.277.

In the case of RRIRVRPPRLPRPRPRPGNRPRP, the “shrunken log2 fold change” value was -0.0858.

Turning to RRIRVRPPRLPRPRPRPQFNPRP, the “shrunken log2 fold change” value was -0.389.

On to RRIRLRPPRLPRPRPRPFVCPRP, for which the “shrunken log2 fold change” value was -0.0489.

With RRIRHRPPRLPRPRPRPRHIPRP, the “shrunken log2 fold change” value was -0.39.

Turning to RRIRWRPPRLPRPRPRPMLNPRP, the “shrunken log2 fold change” value was -0.00515.

For RRIRGRPPRLPRPRPRPCNMPRP, the “shrunken log2 fold change” value was -0.0796.

Turning to RRIRGRPPRLPRPRPRPTNAPRP, the “shrunken log2 fold change” value is 0.923.

Turning to RRIRNRPPRLPRPRPRPNSLPRP, the “shrunken log2 fold change” value was -0.335.

For the sequence RRIRTRPPRLPRPRPRPYNWPRP, the “shrunken log2 fold change” value was -0.143.

RRIRMRPPRLPRPRPRPKIMPRP: the “shrunken log2 fold change” value is -0.208.

For RRIRDRPPRLPRPRPRPWEVPRP, the “shrunken log2 fold change” value is -0.0135.

With RRIRCRPPRLPRPRPRPTQKPRP, the “shrunken log2 fold change” value came out at 0.0827.

RRIRHRPPRLPRPRPRPDYIPRP: the “shrunken log2 fold change” value was -0.0135.

With RRIRQRPPRLPRPRPRPTTQPRP, the “shrunken log2 fold change” value came to 0.0143.

For the sequence RRIRCRPPRLPRPRPRPTKNPRP, the “shrunken log2 fold change” value was found to be 0.142.

Consider RRIRKRPPRLPRPRPRPNFCPRP, for which the “shrunken log2 fold change” value is -0.0549.

With RRIRNRPPRLPRPRPRPVSLPRP, the “shrunken log2 fold change” value is -0.396.

With RRIRLRPPRLPRPRPRPIQMPRP, the “shrunken log2 fold change” value was -0.0252.

Take RRIRCRPPRLPRPRPRPYCMPRP: the “shrunken log2 fold change” value is -1.09.

For RRIRTRPPRLPRPRPRPSQGPRP, the “shrunken log2 fold change” value worked out at 0.144.

Regarding RRIRHRPPRLPRPRPRPRDQPRP, the “shrunken log2 fold change” value is -0.0907.

Consider RRIRGRPPRLPRPRPRPIQNPRP, for which the “shrunken log2 fold change” value was 0.0261.

Take RRIRHRPPRLPRPRPRPSDCPRP: the “shrunken log2 fold change” value was -0.126.

RRIRKRPPRLPRPRPRPLTTPRP: the “shrunken log2 fold change” value worked out at 0.539.

Regarding RRIRERPPRLPRPRPRPGDGPRP, the “shrunken log2 fold change” value is 0.389.

Take RRIRCRPPRLPRPRPRPTIFPRP: the “shrunken log2 fold change” value is -0.626.

On to RRIRPRPPRLPRPRPRPYYHPRP, for which the “shrunken log2 fold change” value was -0.794.

For RRIRGRPPRLPRPRPRPKPWPRP, the “shrunken log2 fold change” value amounted to 0.914.

In the case of RRIRVRPPRLPRPRPRPSPMPRP, the “shrunken log2 fold change” value was -0.261.

As for RRIRHRPPRLPRPRPRPHHGPRP, the “shrunken log2 fold change” value was -0.755.

Take RRIRSRPPRLPRPRPRPLRNPRP: the “shrunken log2 fold change” value was 1.38.

For RRIRCRPPRLPRPRPRPANPPRP, the “shrunken log2 fold change” value was -0.057.

For RRIRMRPPRLPRPRPRPPEIPRP, the “shrunken log2 fold change” value amounted to 0.48.

For the sequence RRIRCRPPRLPRPRPRPPTAPRP, the “shrunken log2 fold change” value worked out at 0.272.

RRIRARPPRLPRPRPRPDPKPRP: the “shrunken log2 fold change” value amounted to 0.268.

As to RRIRGRPPRLPRPRPRPFMCPRP, the “shrunken log2 fold change” value is 0.224.

In the case of RRIRERPPRLPRPRPRPKGEPRP, the “shrunken log2 fold change” value came out at 0.0173.

As for RRIRERPPRLPRPRPRPRSCPRP, the “shrunken log2 fold change” value came to 0.0568.

On to RRIRERPPRLPRPRPRPDWHPRP, for which the “shrunken log2 fold change” value is -0.12.

As to RRIRFRPPRLPRPRPRPYACPRP, the “shrunken log2 fold change” value came to 0.0338.

Turning to RRIRPRPPRLPRPRPRPAYVPRP, the “shrunken log2 fold change” value is -0.241.

Take RRIRSRPPRLPRPRPRPAIPPRP: the “shrunken log2 fold change” value was -0.139.

With RRIRLRPPRLPRPRPRPYYVPRP, the “shrunken log2 fold change” value was -0.0539.

Consider RRIRKRPPRLPRPRPRPFGHPRP, for which the “shrunken log2 fold change” value is -0.00208.

Take RRIRARPPRLPRPRPRPLKPPRP: the “shrunken log2 fold change” value came to 0.464.

Regarding RRIRKRPPRLPRPRPRPMPPPRP, the “shrunken log2 fold change” value turned out to be 0.729.

In the case of RRIRVRPPRLPRPRPRPCNRPRP, the “shrunken log2 fold change” value was -0.0287.

With RRIRCRPPRLPRPRPRPAPLPRP, the “shrunken log2 fold change” value turned out to be 0.645.

For RRIRLRPPRLPRPRPRPNGAPRP, the “shrunken log2 fold change” value amounted to 0.0311.

On to RRIRDRPPRLPRPRPRPIMVPRP, for which the “shrunken log2 fold change” value was -0.103.

For RRIRYRPPRLPRPRPRPPIHPRP, the “shrunken log2 fold change” value was -0.958.

With RRIRVRPPRLPRPRPRPKDMPRP, the “shrunken log2 fold change” value is -0.272.

For the sequence RRIRIRPPRLPRPRPRPSLWPRP, the “shrunken log2 fold change” value worked out at 0.211.

Turning to RRIRIRPPRLPRPRPRPFCDPRP, the “shrunken log2 fold change” value was -0.0745.

As for RRIRVRPPRLPRPRPRPMPQPRP, the “shrunken log2 fold change” value amounted to 0.311.

In the case of RRIRYRPPRLPRPRPRPESPPRP, the “shrunken log2 fold change” value is -0.0215.

For RRIRYRPPRLPRPRPRPYVEPRP, the “shrunken log2 fold change” value is -0.00822.

In the case of RRIRPRPPRLPRPRPRPFYMPRP, the “shrunken log2 fold change” value was -0.324.

In the case of RRIRWRPPRLPRPRPRPIQSPRP, the “shrunken log2 fold change” value came out at 0.245.

As for RRIRMRPPRLPRPRPRPNSNPRP, the “shrunken log2 fold change” value is -0.177.

Take RRIRSRPPRLPRPRPRPAVHPRP: the “shrunken log2 fold change” value is 0.0588.

RRIRPRPPRLPRPRPRPLYMPRP: the “shrunken log2 fold change” value is -0.673.

Consider RRIRERPPRLPRPRPRPSGCPRP, for which the “shrunken log2 fold change” value came out at 0.0787.

Regarding RRIRQRPPRLPRPRPRPQSIPRP, the “shrunken log2 fold change” value is -0.0322.

For RRIRGRPPRLPRPRPRPQEQPRP, the “shrunken log2 fold change” value was found to be 0.458.

RRIRCRPPRLPRPRPRPMCKPRP: the “shrunken log2 fold change” value was -0.109.

Consider RRIRTRPPRLPRPRPRPTTPPRP, for which the “shrunken log2 fold change” value was determined as 0.245.

In the case of RRIRERPPRLPRPRPRPMLWPRP, the “shrunken log2 fold change” value is -0.0445.

Take RRIRYRPPRLPRPRPRPNVIPRP: the “shrunken log2 fold change” value is -0.338.

For the sequence RRIRDRPPRLPRPRPRPDMHPRP, the “shrunken log2 fold change” value came out at 0.633.

Turning to RRIRTRPPRLPRPRPRPECYPRP, the “shrunken log2 fold change” value was -0.0535.

Consider RRIRFRPPRLPRPRPRPYCWPRP, for which the “shrunken log2 fold change” value is -0.652.

Turning to RRIRSRPPRLPRPRPRPKLTPRP, the “shrunken log2 fold change” value was -0.06.

Take RRIRMRPPRLPRPRPRPPEDPRP: the “shrunken log2 fold change” value amounted to 1.66.

Take RRIRHRPPRLPRPRPRPFLGPRP: the “shrunken log2 fold change” value was found to be 0.0354.

Turning to RRIRGRPPRLPRPRPRPEQHPRP, the “shrunken log2 fold change” value was found to be 0.66.

In the case of RRIRSRPPRLPRPRPRPHARPRP, the “shrunken log2 fold change” value came out at 0.0679.

For RRIRMRPPRLPRPRPRPLLKPRP, the “shrunken log2 fold change” value was found to be 2.7.

RRIRVRPPRLPRPRPRPKIQPRP: the “shrunken log2 fold change” value is -0.0896.

Regarding RRIRYRPPRLPRPRPRPEVVPRP, the “shrunken log2 fold change” value was -0.219.

Regarding RRIRFRPPRLPRPRPRPCLQPRP, the “shrunken log2 fold change” value was 0.0975.

Turning to RRIRWRPPRLPRPRPRPHPDPRP, the “shrunken log2 fold change” value turned out to be 0.0175.

Take RRIRPRPPRLPRPRPRPVDDPRP: the “shrunken log2 fold change” value amounted to 0.103.

As for RRIRKRPPRLPRPRPRPVIFPRP, the “shrunken log2 fold change” value worked out at 0.265.

Take RRIRWRPPRLPRPRPRPKYNPRP: the “shrunken log2 fold change” value was -0.558.

Take RRIRNRPPRLPRPRPRPGKYPRP: the “shrunken log2 fold change” value is -0.117.

For the sequence RRIRCRPPRLPRPRPRPIWAPRP, the “shrunken log2 fold change” value is -0.0162.

For RRIRRRPPRLPRPRPRPGFRPRP, the “shrunken log2 fold change” value is 0.331.

On to RRIRMRPPRLPRPRPRPGVVPRP, for which the “shrunken log2 fold change” value was determined as 0.761.

On to RRIRCRPPRLPRPRPRPLQNPRP, for which the “shrunken log2 fold change” value is -0.0876.

Take RRIRRRPPRLPRPRPRPPSAPRP: the “shrunken log2 fold change” value worked out at 0.626.

Consider RRIRSRPPRLPRPRPRPNQSPRP, for which the “shrunken log2 fold change” value is -0.0432.

On to RRIRERPPRLPRPRPRPDDWPRP, for which the “shrunken log2 fold change” value is -0.0125.

Regarding RRIRYRPPRLPRPRPRPFCQPRP, the “shrunken log2 fold change” value was determined as 0.0155.

Take RRIRHRPPRLPRPRPRPEPMPRP: the “shrunken log2 fold change” value was 0.134.

Consider RRIRQRPPRLPRPRPRPGMMPRP, for which the “shrunken log2 fold change” value is -0.0714.

With RRIRIRPPRLPRPRPRPTRHPRP, the “shrunken log2 fold change” value came out at 0.0172.

Regarding RRIRIRPPRLPRPRPRPWFFPRP, the “shrunken log2 fold change” value is -0.198.

With RRIRKRPPRLPRPRPRPRNAPRP, the “shrunken log2 fold change” value is 0.57.

For RRIRRRPPRLPRPRPRPQPYPRP, the “shrunken log2 fold change” value is -0.142.

As for RRIRMRPPRLPRPRPRPANKPRP, the “shrunken log2 fold change” value turned out to be 0.178.

In the case of RRIRFRPPRLPRPRPRPQWPPRP, the “shrunken log2 fold change” value turned out to be 0.192.

With RRIRSRPPRLPRPRPRPPGVPRP, the “shrunken log2 fold change” value was determined as 0.293.

Take RRIRMRPPRLPRPRPRPDRQPRP: the “shrunken log2 fold change” value came out at 0.239.

For RRIRVRPPRLPRPRPRPMNTPRP, the “shrunken log2 fold change” value was -0.312.

Regarding RRIRNRPPRLPRPRPRPQQQPRP, the “shrunken log2 fold change” value is 0.103.

With RRIRNRPPRLPRPRPRPHFWPRP, the “shrunken log2 fold change” value is -0.285.

For the sequence RRIRMRPPRLPRPRPRPWRGPRP, the “shrunken log2 fold change” value is 0.497.

As for RRIRNRPPRLPRPRPRPLYVPRP, the “shrunken log2 fold change” value was -0.641.

With RRIRVRPPRLPRPRPRPDHIPRP, the “shrunken log2 fold change” value was -0.206.

With RRIRFRPPRLPRPRPRPCIWPRP, the “shrunken log2 fold change” value turned out to be 0.25.

In the case of RRIRERPPRLPRPRPRPYQNPRP, the “shrunken log2 fold change” value is -0.0789.

On to RRIRDRPPRLPRPRPRPDTHPRP, for which the “shrunken log2 fold change” value turned out to be 0.17.

For RRIRFRPPRLPRPRPRPHIWPRP, the “shrunken log2 fold change” value is -0.57.

In the case of RRIRCRPPRLPRPRPRPGIAPRP, the “shrunken log2 fold change” value worked out at 0.201.

RRIRNRPPRLPRPRPRPMLAPRP: the “shrunken log2 fold change” value is -0.053.

As to RRIRYRPPRLPRPRPRPIEFPRP, the “shrunken log2 fold change” value is -0.0341.

On to RRIRWRPPRLPRPRPRPAFWPRP, for which the “shrunken log2 fold change” value was found to be 0.708.

Take RRIRVRPPRLPRPRPRPESYPRP: the “shrunken log2 fold change” value was determined as 0.45.

With RRIRVRPPRLPRPRPRPSPSPRP, the “shrunken log2 fold change” value was -0.017.
